Results taken from patent US20080227698A1, “OLIGOPEPTIDES FOR TREATMENT OF OSTEOPOROSIS AND OTHER BONE DISEASES AND METHODS THEREOF” (Washington University, priority 2005, published 2008).

Assays:
LRP6 [1] = biological target: T1, LRP6 (Homo sapiens, UniProt O75581); experiment: ^125I-Mesd binding to LRP6, competition by Mesd or oligopeptide (FIG. 10C); set-up: plasmid pCS-Myc-hLRP6 containing the full-length human LRP6 cDNA; HA; expressed in transfected cells; host or cells: human HT1080 cells, stably transduced (pLNCX2 retroviral vector); details: compared with LRP5 (up to about 10-fold)
T1 sequence (O75581 20-1613): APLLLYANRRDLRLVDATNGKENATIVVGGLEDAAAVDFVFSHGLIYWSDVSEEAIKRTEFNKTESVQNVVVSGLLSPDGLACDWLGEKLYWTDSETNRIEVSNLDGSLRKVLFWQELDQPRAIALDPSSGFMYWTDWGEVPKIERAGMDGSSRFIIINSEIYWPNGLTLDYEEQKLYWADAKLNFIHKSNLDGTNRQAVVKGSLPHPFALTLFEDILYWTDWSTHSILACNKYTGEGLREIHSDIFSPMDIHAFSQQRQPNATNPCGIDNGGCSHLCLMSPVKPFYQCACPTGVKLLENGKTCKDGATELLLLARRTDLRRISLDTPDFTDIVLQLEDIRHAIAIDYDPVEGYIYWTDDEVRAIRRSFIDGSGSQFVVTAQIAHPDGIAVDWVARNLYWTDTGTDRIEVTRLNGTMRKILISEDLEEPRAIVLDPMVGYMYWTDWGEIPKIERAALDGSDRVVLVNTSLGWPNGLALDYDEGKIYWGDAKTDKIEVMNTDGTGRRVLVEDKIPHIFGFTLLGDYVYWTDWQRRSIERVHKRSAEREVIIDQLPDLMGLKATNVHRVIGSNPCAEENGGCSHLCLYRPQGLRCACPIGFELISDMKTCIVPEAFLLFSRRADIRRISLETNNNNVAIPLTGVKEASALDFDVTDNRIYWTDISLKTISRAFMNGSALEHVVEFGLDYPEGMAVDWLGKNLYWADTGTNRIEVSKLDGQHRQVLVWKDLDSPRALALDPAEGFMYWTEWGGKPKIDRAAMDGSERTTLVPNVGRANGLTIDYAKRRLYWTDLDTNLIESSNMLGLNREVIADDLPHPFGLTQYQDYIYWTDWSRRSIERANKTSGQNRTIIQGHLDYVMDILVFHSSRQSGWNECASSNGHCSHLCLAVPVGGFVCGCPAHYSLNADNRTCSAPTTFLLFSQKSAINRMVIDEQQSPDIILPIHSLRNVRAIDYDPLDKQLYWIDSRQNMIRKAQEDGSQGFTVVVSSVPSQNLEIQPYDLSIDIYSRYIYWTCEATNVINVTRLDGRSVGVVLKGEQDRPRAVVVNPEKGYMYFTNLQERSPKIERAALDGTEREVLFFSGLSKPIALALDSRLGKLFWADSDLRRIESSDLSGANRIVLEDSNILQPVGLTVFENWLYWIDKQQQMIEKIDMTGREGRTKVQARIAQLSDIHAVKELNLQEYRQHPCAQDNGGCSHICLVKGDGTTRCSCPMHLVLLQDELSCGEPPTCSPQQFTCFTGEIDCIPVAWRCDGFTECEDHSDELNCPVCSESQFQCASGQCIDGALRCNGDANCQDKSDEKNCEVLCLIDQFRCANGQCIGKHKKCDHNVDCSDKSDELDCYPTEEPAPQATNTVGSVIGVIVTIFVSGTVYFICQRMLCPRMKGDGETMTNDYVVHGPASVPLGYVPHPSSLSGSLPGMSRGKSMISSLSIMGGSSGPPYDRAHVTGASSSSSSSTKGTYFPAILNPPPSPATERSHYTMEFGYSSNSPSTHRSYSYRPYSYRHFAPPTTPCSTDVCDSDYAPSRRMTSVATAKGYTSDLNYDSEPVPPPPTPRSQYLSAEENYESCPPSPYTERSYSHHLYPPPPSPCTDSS
Description: In order to investigate the binding of Mesd polypeptide and an Mesd oligopeptide to either LRP5 or LRP6, binding assays were performed using ^125I-Mesd or ^125I-DKK1 (FIG. 10).

[2] = test system: TCF/LEF transcriptional activity; experiment: TOP-FLASH luciferase reporter assay in HEK293 cells cotransfected with LRP6 and Mesd constructs; type: cell-based; details: luciferase 48 hours after transfection
Description: HEK293 cells were plated into six-well plates. For each well, […] of the TOP-[…] luciferase construct (Upstate Biotechnology) was cotransfected with 0.8 μg Mesd-expressing vector, 0.8 μg Mesd mutant-expressing vector, or empty vector. A β-galactosidase-expressing vector (Promega, Madison, Wis.) was included as an internal control for transfection efficiency. After 48 hours, cells were lysed and both luciferase and β-galactosidase activities were determined with enzyme assay kits (Promega). The luciferase activity was determined with a luminometer using the Dual Luciferase Assay system (Promega). Luciferase activity was normalized to the activity of the P-galactosidase.
Activation of canonical Wnt signaling leads to the stabilization of P-catenin and regulation of gene transcription through transcription regulators including lymphoid-enhancing factor (LEF)-1 and T-cell factors (TCF). The TOP-FLASH luciferase reporter contains TCF-binding sites and can be directly activated by the P-catenin/TCF complex (Korinek et al., 1997). LRP6 is cell surface receptor, and only the mature receptor can reach the cell surface and modulate Wnt signaling (Cong et al., 2004). Next examined was the effect of Mesd_C on Wnt signaling using the TOP-FLASH luciferase reporter assay in HEK293 cells. […] The luciferase activity was measured 48 hours after transfection. […]

LRP6 [3] = biological target: T1, LRP6; experiment: LRP6-mediated ^125I-DKK1 degradation in LRP6-transduced HT1080 cells; type: cell-based; set-up: plasmid pCS-Myc-hLRP6 containing the full-length human LRP6 cDNA; HA; expressed in transfected cells; host or cells: human HT1080 cells, stably transduced (pLNCX2 retroviral vector); details: 500 nM competitor, 4 hours at 37° C.
Description: Ligand degradation was performed using the methods as described (Li, Y., J. Biol. Chem. 275: 17187-17194, 2000). Briefly, 2×10^5 cells were seeded into 12-well dishes 1 day prior to assay. Pre-warmed assay buffer (minimal Eagle's medium containing 0.6% BSA with radioligand, 0.6 ml/well) was added to cell monolayers in the absence or the presence of unlabeled 500 nM RAP or 500 nM Mesd, followed by incubation for 4 hours at 37° C. Thereafter, the medium overlying the cell monolayers was removed and proteins were precipitated by addition of BSA to 10 mg/ml and trichloroacetic acid to 20%. […] After each time point, the plates were quickly placed on ice and the assay buffer was replaced with cold stop/strip solution. ^125I-anti-HA IgG that remained on the cell surface was stripped by incubation of cell monolayers with cold stop/strip solution for a total of 20 minutes (0.75 ml for 10 minutes, twice) and counted. Cell monolayers were then solubilized with low-SDS lysis buffer and counted. […] The fraction of internalized ^125I-anti-HA IgG after each time point was calculated and plotted.
RAP is a receptor antagonist for members of the LDLR family, and is able to inhibit the binding of most known ligands of the LDLR family members. […] Cell-surface-bound Myc-tagged DKK proteins were fixed and detected by immunofluorescence staining with anti-Myc antibody. […]

Reduction of binding of ^125I-Mesd to LRP6 (LRP6 [1]): even greater reduction
Effect of excess unlabeled competitor on increased DKK1 degradation (LRP6 [3]): abolished
B1: Mesd: recombinant wild-type mouse Mesd, polyhistidine tail at the N-terminus, lacks the signal peptide, expressed in E. coli (protein)
chain: ADTPGEATPPPRKKKDIRDYNDADMARLLEQWEKDDDIEEGDLPEHKRPSAPIDFSKLDPGKPESILKMTKKGKTLMMFVTVSGNPTEKETEEITSLWQGSLFNANYDVQRFIVGSDRAIFMLRDGSYAWEIKDFLVSQDRCAEVTLEGQMYPGKGGGSKEKNKTKPEKAKKKEGDRKPRASKEDNRAGSRREDL
modifications: left off: small tags and cut ends
notes: recombinant wild-type mouse Mesd, polyhistidine tail at the N-terminus, lacks the signal peptide, expressed in E. coli
TCF/LEF transcriptional activity (TOP-FLASH) on coexpression [2]: significantly enhanced
